According to patent publication US20230012273A1 (Boehringer Ingelheim, published 2023):

T1: cynomolgus SIRPα (EGM_02252) extracellular domain + His-tag (cynomolgus monkey)
T1 construct: SPR analyte; also called CySIRPα EGM_02252; cynoSIRPα; not shown: His-tag
T1 chain: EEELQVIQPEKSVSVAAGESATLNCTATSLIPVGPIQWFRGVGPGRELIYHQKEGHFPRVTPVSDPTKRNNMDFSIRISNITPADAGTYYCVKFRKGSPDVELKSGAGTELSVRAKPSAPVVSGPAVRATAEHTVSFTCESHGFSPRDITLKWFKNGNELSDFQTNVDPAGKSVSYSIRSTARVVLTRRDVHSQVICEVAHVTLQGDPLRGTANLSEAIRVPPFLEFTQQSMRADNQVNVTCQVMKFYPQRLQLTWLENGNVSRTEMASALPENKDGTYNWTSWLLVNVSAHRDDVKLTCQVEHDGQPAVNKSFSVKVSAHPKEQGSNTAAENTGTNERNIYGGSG

T2: cynomolgus SIRPβ1 (XP_005568598) extracellular domain + His-tag (cynomolgus monkey)
T2 construct: SPR analyte; also called Cyno SIRPβ1 XP_005568598; cynoSIRPβ1; not shown: His-tag
T2 chain: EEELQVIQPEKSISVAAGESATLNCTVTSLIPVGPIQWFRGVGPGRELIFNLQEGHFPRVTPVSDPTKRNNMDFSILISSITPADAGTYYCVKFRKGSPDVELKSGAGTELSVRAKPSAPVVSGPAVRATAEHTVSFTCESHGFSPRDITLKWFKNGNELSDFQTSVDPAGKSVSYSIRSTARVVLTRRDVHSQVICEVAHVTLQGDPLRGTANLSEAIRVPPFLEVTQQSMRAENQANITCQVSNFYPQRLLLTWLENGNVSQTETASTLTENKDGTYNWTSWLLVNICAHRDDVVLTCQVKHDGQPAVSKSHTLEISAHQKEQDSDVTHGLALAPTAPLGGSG

T3: cynomolgus SIRPγ (XP_005568591) extracellular domain + His-tag (cynomolgus monkey, UniProt Q9P1W8 29-359 (human entry))
T3 construct: SPR analyte; also called Cyno SIRPγ XP_005568591; cynoSIRPγ; not shown: His-tag
T3 chain: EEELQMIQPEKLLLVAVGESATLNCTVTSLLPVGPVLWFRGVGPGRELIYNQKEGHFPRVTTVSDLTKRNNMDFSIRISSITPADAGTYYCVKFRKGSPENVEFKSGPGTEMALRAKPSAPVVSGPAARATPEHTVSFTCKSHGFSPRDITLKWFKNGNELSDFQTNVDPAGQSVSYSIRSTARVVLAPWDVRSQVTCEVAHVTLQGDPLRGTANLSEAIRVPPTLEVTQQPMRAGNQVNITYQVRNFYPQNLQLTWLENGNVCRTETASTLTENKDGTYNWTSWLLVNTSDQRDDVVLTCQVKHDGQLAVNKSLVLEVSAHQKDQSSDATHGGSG

T4: cynomolgus SIRPβ1v3 (XP_005568593) extracellular domain + His-tag (cynomolgus monkey)
T4 construct: SPR analyte; also called Cyno SIRPβ1v3 XP_005568593; cynoSIRPβ1v3; not shown: His-tag
T4 chain: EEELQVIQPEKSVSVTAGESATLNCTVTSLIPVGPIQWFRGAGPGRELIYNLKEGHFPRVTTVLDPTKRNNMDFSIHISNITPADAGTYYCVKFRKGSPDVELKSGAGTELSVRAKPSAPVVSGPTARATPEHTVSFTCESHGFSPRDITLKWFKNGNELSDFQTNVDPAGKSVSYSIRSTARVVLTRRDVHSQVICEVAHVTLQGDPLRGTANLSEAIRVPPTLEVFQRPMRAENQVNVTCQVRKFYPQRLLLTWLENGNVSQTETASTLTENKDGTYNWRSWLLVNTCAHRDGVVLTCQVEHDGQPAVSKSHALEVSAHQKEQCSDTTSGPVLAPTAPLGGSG


How the values were obtained:
[1] = molecular target: T1, cynomolgus SIRPα (EGM_02252) …; assay: SPR
Protocol: (§1) The binding affinity of anti-SIRPα antibodies to the various SIRPα analytes is determined by surface plasmon resonance (SPR) using a ProteOn XPR36 (Bio-Rad). The running buffer for this experiment and all dilutions (except where stated) are done in 1×HBS-EP+. […] The sensorchip is deactivated with 1M ethanolamine HCl for 420 sec at a flowrate of 10 μl/min.
(§2) The analyte is injected over the captured antibody for 300 sec at a flowrate of 30 μl/min. The dissociation is done for 600 sec. Two-fold serial dilutions of each SIRP protein (Extracellular Domain+His-Tag) are injected as analyte with the highest concentrations indicated in table 36 below.

[2] = molecular target: T2, cynomolgus SIRPβ1 (XP_005568598) …; assay: SPR
Protocol: as §1, §2

[3] = molecular target: T3, cynomolgus SIRPγ (XP_005568591) …; assay: SPR
Protocol: as §1, §2

[4] = molecular target: T4, cynomolgus SIRPβ1v3 (XP_005568593) …; assay: SPR, antibody captured, ECD-His analyte
Protocol: as §1, §2

binding result [1]	binding result [2]	binding result [3]	Kd [4]	Binder
no binding (tested: 1000 nM)	no binding (tested: 1000 nM)	no binding (tested: 1000 nM)	10.8 nM	Antibody E1 (antibody, human IgG1, kappa, L234A L235A, V domains shown) VH: QVQLQESGPGLVRPSETLSLTCTVSGGSIRNYYWSWIRQPPGKGLEWIGFIYYNGRTFYNPSLKSRVTISLDMSINQFSLKMTSVTAADTAVYYCARVRAYSGIGLDGTDVWGQGTTVTVSS VL: DIVMTQSPLSLPVTPGEPASISCKSSQSLLYSNGYAYLDWYLQRPGQSPQLLIYQGSNRASGVPDRFSGSGSGTDFTLKISRVEAEDVGVFYCMQALQTPLTFGGGTKVEIKR
no binding (tested: 1000 nM)	no binding (tested: 1000 nM)	no binding (tested: 1000 nM)	22.6 nM	Antibody E5 (antibody, human IgG1, kappa, L234A L235A, V domains shown) VH: QVQLQESGPGLVRPSETLSLTCTVSGGSIRNYYWSWIRQPPGKGLEWIGFIYYNGRTFYNPSLKSRVTISLDKSKNQFSLKMTSVTAADTAVYYCARVRAYSGIGLDGTDVWGQGTTVTVSS VL: DIVMTQSPLSLPVTPGEPASISCKSSQSLLYSNGYAYLDWYLQRPGQSPQLLIYQGSNRASGVPDRFSGSGSGTDFTLKISRVEAEDVGVFYCMQALQTPLTFGGGTKVEIKR
no binding (tested: 1000 nM)	no binding (tested: 1000 nM)	no binding (tested: 1000 nM)	25.1 nM	Antibody E9 (antibody, human IgG1, kappa, L234A L235A, V domains shown) VH: QVQLQESGPGLVRPSETLSLTCTVSGGSIRNYYWSWIRQPPGKGLEWIGFIYYNGRTFYNPSLKSRVTISLDMSINQFSLKMTSVTAADTAVYYCARVRAYSGIGLDGTDVWGQGTTVTVSS VL: DIVMTQSPLSLPVTPGEPASISCKSSQSLLYSNAYNYLDWYLQRPGQSPQLLIYLGSNRASGVPDRFSGSGSGTDFTLKISRVEAEDVGVYYCMQALQTPLTFGGGTKVEIKR
no binding (tested: 1000 nM)	no binding (tested: 1000 nM)	no binding (tested: 1000 nM)	10.8 nM	Antibody E8 (antibody, human IgG1, kappa, L234A L235A, V domains shown) VH: QVQLQESGPGLVRPSETLSLTCTVSGGSIRNYYWSWIRQPPGKGLEWMGFIYDNGRTFYNPSLKSRVTISLDMSMNQFSLKMTSVTAADTAVYYCARVRAYSGIGLDGTDVWGQGTTVTVSS VL: DIVMTQSPLSLPVTPGEPASISCKSSQSLLYSNGYAYLDWYLQRPGQSPQLLIYQGSNRASGVPDRFSGSGSGTDFTLKISRVEAEDVGVFYCMQALQTPLTFGGGTKVEIKR
no binding (tested: 1000 nM)	no binding (tested: 1000 nM)	no binding (tested: 1000 nM)	10.7 nM	Antibody E3 (antibody, human IgG1, kappa, L234A L235A, V domains shown) VH: QVQLQESGPGLVRPSETLSLTCTVSGGSIRNYYWSWIRQPPGKGLEWIGFIYYNGRTFYNPSLKSRVTISLDMSKNQFSLKMTSVTAADTAVYYCARVRAYSGIGLDGTDVWGQGTTVTVSS VL: DIVMTQSPLSLPVTPGEPASISCKSSQSLLYSNGYAYLDWYLQRPGQSPQLLIYQGSNRASGVPDRFSGSGSGTDFTLKISRVEAEDVGVFYCMQALQTPLTFGGGTKVEIKR
no binding (tested: 1000 nM)	no binding (tested: 1000 nM)	no binding (tested: 1000 nM)	15.7 nM	Antibody E10 (antibody, human IgG1, kappa, L234A L235A, V domains shown) VH: QVQLQESGPGLVRPSETLSLTCTVSGGSIRNYYWSWIRQPPGKGLEWIGFIYYNGRTFYNPSLKSRVTISLDTSKNQFSLKMTSVTAADTAVYYCARVRAYSGIGLDGTDVWGQGTTVTVSS VL: DIVMTQSPLSLPVTPGEPASISCKSSQSLLYSNGYAYLDWYLQRPGQSPQLLIYLGSNRASGVPDRFSGSGSGTDFTLKISRVEAEDVGVYYCMQALQTPLTFGGGTKVEIKR

The next lines start with the binder.

Binder	binding result [1]	binding result [2]	binding result [3]	Kd [4]
Antibody E7 (antibody, human IgG1, kappa, L234A L235A, V domains shown) VH: QVQLQESGPGLVRPSETLSLTCTVSGGSIRNYYWSWIRQPPGKGLEWIGFIYYNGRTFYNPSLKSRVTISLDTSKNQFSLKMTSVTAADTAVYYCARVRAYSGIGLDGTDVWGQGTTVTVSS VL: DIVMTQSPLSLPVTPGEPASISCKSSQSLLYSNGYAYLDWYLQRPGQSPQLLIYQGSNRASGVPDRFSGSGSGTDFTLKISRVEAEDVGVFYCMQALQTPLTFGGGTKVEIKR	no binding (tested: 1000 nM)	no binding (tested: 1000 nM)	no binding (tested: 1000 nM)	13.1 nM
Antibody E11 (antibody, human IgG1, kappa, L234A L235A, V domains shown) VH: QVQLQESGPGLVRPSETLSLTCTVSGGSIRNYYWSWIRQPPGKGLEWMGFIYDNGRTFYNPSLKSRVTISLDMSMNQFSLKMTSVTAADTAVYYCARVRAYSGIGLDGTDVWGQGTTVTVSS VL: DIVMTQSPLSLPVTPGEPASISCKSSQSLLYSNGYAYLDWYLQRPGQSPQLLIYLGSNRASGVPDRFSGSGSGTDFTLKISRVEAEDVGVYYCMQALQTPLTFGGGTKVEIKR	no binding (tested: 1000 nM)	no binding (tested: 1000 nM)	no binding (tested: 1000 nM)	13.2 nM
Antibody E2 (antibody, human IgG1, kappa, L234A L235A, V domains shown) VH: QVQLQESGPGLVRPSETLSLTCTVSGGSIRNYYWSWIRQPPGKGLEWIGFIYYNGRTFYNPSLKSRVTISLDMSINQFSLKMTSVTAADTAVYYCARVRAYSGIGLDGTDVWGQGTTVTVSS VL: DIVMTQSPLSLPVTPGEPASISCKSSQSLLYSNGYAYLDWYLQRPGQSPQLLIYLGSNRASGVPDRFSGSGSGTDFTLKISRVEAEDVGVYYCMQALQTPLTFGGGTKVEIKR	no binding (tested: 1000 nM)	no binding (tested: 1000 nM)	no binding (tested: 1000 nM)	12.4 nM
Antibody E12 (antibody, human IgG1, kappa, L234A L235A, V domains shown) VH: QVQLQESGPGLVRPSETLSLTCTVSGGSIRNYYWSWIRQPPGKGLEWIGFIYYNGRTFYNPSLKSRVTISLDMSKNQFSLKMTSVTAADTAVYYCARVRAYSGIGLDGTDVWGQGTTVTVSS VL: DIVMTQSPLSLPVTPGEPASISCKSSQSLLYSNAYNYLDWYLQRPGQSPQLLIYLGSNRASGVPDRFSGSGSGTDFTLKISRVEAEDVGVYYCMQALQTPLTFGGGTKVEIKR	no binding (tested: 1000 nM)	no binding (tested: 1000 nM)	no binding (tested: 1000 nM)	27.9 nM
Antibody E6 (antibody, human IgG1, kappa, L234A L235A, V domains shown) VH: QVQLQESGPGLVRPSETLSLTCTVSGGSIRNYYWSWIRQPPGKGLEWIGFIYYNGRTFYNPSLKSRVTISLDKSKNQFSLKMTSVTAADTAVYYCARVRAYSGIGLDGTDVWGQGTTVTVSS VL: DIVMTQSPLSLPVTPGEPASISCKSSQSLLYSNGYAYLDWYLQRPGQSPQLLIYLGSNRASGVPDRFSGSGSGTDFTLKISRVEAEDVGVYYCMQALQTPLTFGGGTKVEIKR	no binding (tested: 1000 nM)	no binding (tested: 1000 nM)	no binding (tested: 1000 nM)	23.9 nM
